Patent publication US20050277575A1, “Therapeutic compositions and methods for treating diseases that involve angiogenesis” (priority 2004, published 2005)

Target: T1, t-PA-mediated plasminogen activation (Homo sapiens, UniProt P00750)
T1 construct: purchased Calbiochem
Assay: t-PA-dependent conversion of plasminogen to plasmin, effect of S100A4 (Example 11)
Format: biochemical
Method: Non-active plasminogen can be converted to active protease plasmin by tissue type (t-PA) or urokinase type (u-PA) plasminogen activators. Except for its well-known fibrinolytic activity, plasmin also directly and indirectly, by activation of matrix metalloproteinases (MMPs), participates in the degradation of extracellular matrix that is important for the angiogenesis and tumor invasion. The kinetics of t-PA-mediated plasminogen activation was determined by measuring amidolytic activity of the plasmin generated during plasminogen activation. The reaction was performed with the plasmin substrate Chromozyme PL, tosyl-glycyl-prolyl-lysin-4-nitranilide-acetate (Roche) in the final concentration of 125 μM in a buffer consisting of 50 mM Tris-HCl, pH 7.4, 100 mM NaCl, 5 mM of CaCl2 or 5 mM of EGTA, and 150 nM of [Glu] plasminogen (Calbiochem). The reaction was preincubated with or without 2.5 μM S100A4 at 24 C° for 1 h in 96-well plates. The reaction was initiated by addition of t-PA (Calbiochem) up to 5 nM concentration, final volume 100 μl. Kinetic of substrate hydrolysis was measured at 2 min intervals at 405 nm in Spectramax Plus 384 spectrophotometer (Molecular Devices). Analysis of kinetics curves (Vmax, time to Vmax, and initial slope of kinetic data converted to A405 versus time^2) was performed with the help of Softmax PRO program (Molecular Devices).
Kinetics of plasminogen to plasmin conversion consists of three parts. As shown in FIG. #3 curves 1 and 2 for t-PA, during first 1500 s the reaction is second order that corresponds to conversion of plasminogen to plasmin and consequent cleavage of chromogenic substrate by plasmin. The second part of reaction is linear, for which Vmax can be calculated. It starts after total conversion of plasminogen to plasmin and corresponds to cleavage of chromogenic substrate by plasmin with constant rate. In the third part of reaction, after 2700 s, the reaction is slowing down that corresponds to depletion of chromogenic substrate and finally the reaction reaches a plateau when all substrate is cleaved. As follows from the comparison of curves 1 and 2, t-PA along converted plasminogen to plasmin equally efficiently in the presence or absence of calcium. Neither conversion of plasminogen to plasmin took place in the absence of t-PA no S110A4 induced such conversion by itself, curves 5 and 6. In the presence of S100A4 linear part of reaction starts substantially earlier, which means that total conversion of plasminogen to plasmin was accelerated. Kinetic parameters for t-PA along and for combination of t-PA with S100A4 are represented in Table 4. […] S100A4 accelerated conversion of plasminogen to plasmin in calcium independent manner, curves 3 and 4.

[1] = Ca (5 mM CaCl2), with or without 2.5 μM S100A4

T1 sequence (P00750 36-562): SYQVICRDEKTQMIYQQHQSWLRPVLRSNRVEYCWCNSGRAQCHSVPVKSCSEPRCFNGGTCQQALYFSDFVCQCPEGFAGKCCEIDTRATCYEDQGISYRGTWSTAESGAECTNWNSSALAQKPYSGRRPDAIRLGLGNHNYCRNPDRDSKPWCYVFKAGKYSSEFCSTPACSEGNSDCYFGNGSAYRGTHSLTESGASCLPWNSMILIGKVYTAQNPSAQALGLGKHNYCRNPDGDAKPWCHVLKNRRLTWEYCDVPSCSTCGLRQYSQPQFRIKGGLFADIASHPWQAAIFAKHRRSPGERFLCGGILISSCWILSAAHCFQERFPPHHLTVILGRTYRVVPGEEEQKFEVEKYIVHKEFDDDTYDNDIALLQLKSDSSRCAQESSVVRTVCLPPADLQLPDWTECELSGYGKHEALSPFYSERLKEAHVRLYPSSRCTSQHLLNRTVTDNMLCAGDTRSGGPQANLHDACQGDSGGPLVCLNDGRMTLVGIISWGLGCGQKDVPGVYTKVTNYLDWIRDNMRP

## S100A4: recombinant human S100A4 protein cloned from human placenta total RNA, Ca-binding protein of S100 family
2.5 μM S100A4 versus t-PA alone
  increase of initial rate of plasmin generation: more than 3 fold
[1]
  Slope (initial rate of plasmin generation): 0.250 ΔA405/t^2(min^2) * 1000
  Time to Vmax: 1440 s
